One assay has as its target collagen type I (mouse, UniProt P11087 152-1207; Q01149 86-1125). Nature of the assay: cell-based or functional assay.
The target in the next assay is T1, CXCR4 (UniProt P61073 1-352, limits assumed).
T1 construct: whole, on cells; also called chemokine receptor type 4; CXCR4 on Mel290 cells
Nature of the assay: binding to CXCR4 positive cells (FIGS. 47A-47B).

The target in assay [1] is T2, PSMA (UniProt Q04609 1-750, limits assumed).
T2 construct: whole, on cells; also called PSMA in LNCaP cell lysate; PSMA on LNCaP cells
T2 sequence (Q04609 whole entry): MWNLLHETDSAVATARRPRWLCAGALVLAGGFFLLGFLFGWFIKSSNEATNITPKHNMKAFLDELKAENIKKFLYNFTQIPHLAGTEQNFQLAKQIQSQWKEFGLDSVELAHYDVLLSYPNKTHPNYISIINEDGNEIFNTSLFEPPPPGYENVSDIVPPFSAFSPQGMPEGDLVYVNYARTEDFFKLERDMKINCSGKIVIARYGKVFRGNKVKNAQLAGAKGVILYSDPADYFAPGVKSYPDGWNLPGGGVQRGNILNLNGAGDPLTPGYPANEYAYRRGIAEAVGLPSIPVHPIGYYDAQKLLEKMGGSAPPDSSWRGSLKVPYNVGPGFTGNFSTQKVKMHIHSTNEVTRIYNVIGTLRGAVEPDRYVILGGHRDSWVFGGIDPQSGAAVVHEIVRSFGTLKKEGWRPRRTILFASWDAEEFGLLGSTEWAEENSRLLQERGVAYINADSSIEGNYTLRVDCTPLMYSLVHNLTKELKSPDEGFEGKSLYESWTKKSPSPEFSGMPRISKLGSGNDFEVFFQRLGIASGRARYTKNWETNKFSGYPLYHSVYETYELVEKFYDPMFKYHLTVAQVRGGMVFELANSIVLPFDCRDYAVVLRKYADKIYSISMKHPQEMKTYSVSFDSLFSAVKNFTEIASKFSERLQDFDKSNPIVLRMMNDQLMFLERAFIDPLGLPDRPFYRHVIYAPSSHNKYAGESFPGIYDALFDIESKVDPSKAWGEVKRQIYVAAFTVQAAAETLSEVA
Nature of the assay: indirect ELISA on coated LNCaP cell lysate. (In general: An ELISA detects its analyte on a solid surface through an enzyme-linked reagent.)
Excerpt: Briefly, LNCaP cell lysates were coated in a 96-well plate and 5% BSA was used as blocking agent. […] The interaction between ProCA32 variants and PSMA in cell lysates was quantified by ELISA using HRP-conjugated goat-anti-rabbit secondary antibody and one step ELISA kit.

Assay [2] deals with T2, PSMA. In words: assay not given; presumably the ELISA on LNCaP cell lysate of FIG. 10.

The Kd is the concentration at which binding is half-saturated. Low values mean higher affinity, high ones lower affinity. What is called EC50 is the midpoint of the concentration-response curve. A low value points to greater potency.

collagen type I, sequence (P11087 152-1207, chain 1 of 2): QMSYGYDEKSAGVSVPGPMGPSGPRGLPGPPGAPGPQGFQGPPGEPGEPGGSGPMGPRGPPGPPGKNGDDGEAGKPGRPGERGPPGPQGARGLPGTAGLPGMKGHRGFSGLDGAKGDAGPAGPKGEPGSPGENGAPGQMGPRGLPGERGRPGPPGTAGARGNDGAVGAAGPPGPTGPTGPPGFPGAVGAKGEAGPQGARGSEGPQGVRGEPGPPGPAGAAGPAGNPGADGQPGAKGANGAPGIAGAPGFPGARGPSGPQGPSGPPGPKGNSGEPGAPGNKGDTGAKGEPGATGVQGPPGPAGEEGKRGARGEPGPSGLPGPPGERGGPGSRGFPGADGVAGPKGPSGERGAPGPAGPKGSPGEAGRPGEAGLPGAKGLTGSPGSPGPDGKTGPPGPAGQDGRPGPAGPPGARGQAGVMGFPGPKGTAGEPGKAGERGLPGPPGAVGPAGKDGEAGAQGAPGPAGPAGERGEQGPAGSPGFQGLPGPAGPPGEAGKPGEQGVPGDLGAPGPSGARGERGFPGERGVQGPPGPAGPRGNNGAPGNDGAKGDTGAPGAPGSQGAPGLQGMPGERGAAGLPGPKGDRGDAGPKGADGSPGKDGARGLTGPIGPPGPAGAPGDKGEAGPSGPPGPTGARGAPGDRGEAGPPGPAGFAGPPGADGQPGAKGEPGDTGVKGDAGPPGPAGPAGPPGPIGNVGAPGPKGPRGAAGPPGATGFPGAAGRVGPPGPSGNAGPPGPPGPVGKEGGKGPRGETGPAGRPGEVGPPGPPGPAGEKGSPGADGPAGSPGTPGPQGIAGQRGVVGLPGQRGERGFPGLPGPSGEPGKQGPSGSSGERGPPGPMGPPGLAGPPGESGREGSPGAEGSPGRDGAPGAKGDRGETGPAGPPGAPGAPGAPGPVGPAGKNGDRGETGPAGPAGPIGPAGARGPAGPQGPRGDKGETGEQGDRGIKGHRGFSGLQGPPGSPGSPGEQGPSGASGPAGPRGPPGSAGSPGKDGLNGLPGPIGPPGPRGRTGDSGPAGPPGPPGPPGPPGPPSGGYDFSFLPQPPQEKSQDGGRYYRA
collagen type I, sequence (Q01149 86-1125, chain 2 of 2): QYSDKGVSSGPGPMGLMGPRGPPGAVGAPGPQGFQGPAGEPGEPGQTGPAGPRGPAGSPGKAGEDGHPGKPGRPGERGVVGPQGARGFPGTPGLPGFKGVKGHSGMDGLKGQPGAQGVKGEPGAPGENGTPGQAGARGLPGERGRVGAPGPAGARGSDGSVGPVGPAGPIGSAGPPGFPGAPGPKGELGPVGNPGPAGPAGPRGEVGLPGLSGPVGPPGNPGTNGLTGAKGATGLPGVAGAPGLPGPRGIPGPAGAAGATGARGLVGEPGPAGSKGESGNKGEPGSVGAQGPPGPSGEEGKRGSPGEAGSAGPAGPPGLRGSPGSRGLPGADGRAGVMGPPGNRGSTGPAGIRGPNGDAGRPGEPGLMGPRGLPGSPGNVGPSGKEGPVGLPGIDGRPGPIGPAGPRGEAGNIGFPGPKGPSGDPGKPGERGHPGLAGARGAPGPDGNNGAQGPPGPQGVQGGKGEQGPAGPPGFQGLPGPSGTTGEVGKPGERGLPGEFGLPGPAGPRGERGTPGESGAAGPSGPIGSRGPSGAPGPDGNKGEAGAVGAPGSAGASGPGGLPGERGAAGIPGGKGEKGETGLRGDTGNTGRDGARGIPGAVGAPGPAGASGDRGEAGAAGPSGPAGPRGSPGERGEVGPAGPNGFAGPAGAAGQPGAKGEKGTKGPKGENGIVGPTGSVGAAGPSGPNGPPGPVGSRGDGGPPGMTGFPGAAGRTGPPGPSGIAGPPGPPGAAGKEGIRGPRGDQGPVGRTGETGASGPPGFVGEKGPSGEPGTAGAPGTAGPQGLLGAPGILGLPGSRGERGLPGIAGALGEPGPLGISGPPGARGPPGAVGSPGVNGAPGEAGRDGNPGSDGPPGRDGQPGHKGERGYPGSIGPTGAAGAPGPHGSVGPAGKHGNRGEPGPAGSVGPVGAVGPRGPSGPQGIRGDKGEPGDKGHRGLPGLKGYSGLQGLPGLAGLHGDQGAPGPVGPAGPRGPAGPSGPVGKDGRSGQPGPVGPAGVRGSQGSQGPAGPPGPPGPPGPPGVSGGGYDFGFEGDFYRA
T1 sequence (P61073 whole entry): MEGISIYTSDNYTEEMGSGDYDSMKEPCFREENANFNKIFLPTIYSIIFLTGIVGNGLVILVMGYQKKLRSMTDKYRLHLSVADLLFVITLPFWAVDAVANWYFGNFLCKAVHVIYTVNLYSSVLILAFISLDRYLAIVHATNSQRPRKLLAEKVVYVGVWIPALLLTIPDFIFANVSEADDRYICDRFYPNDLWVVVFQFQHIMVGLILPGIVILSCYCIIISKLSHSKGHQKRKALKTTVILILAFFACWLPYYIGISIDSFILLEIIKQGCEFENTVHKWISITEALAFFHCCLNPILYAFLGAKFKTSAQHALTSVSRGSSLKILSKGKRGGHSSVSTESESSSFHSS

B1: rat ProCA32.collagen (designed binder)
chain: MSMTDLLSAEDIKKAIGAFTAADSFDHKKFFQMVGLKKKSADDVKKVFHILDKDKDGFIEEDELGSILKGFSSDARDLSAKETKTLMAAGDKDGDGKIGVEEWSTLVAESGGGKKWHCYTYFPHHYCVYG
modifications: Used as a contrast agent loaded with Gd3+; the metal ions are not carried by the letters.
For B1, in the assay with collagen type I, the “Gd^3+ injection dosage per gram of tissue in fibrotic liver, against rProCA32” value is ~2 fold.

B2: ProCA32.V1.CXCR4 (designed binder)
chain: MSMTDLLNAEDIKKAVGAFSATDSFDHKKFFQMVGLKKKSADDVKKVFHMLDKDKDGFIEEDELGFILKGFSPDARDLSAKETKMLMAAGDKDGDGKIGVEEWSTLVAESLGASWHRPDKCCLGYQKRPLP
notes: also called ProCA32.CXCR4
With B2, in the assay with CXCR4, the Kd was determined as 1840 nM.

B3: ProCA32 (other)
chain: SMTDLLNAEDIKKAVGAFSATDSFDHKKFFQMVGLKKKSADDVKKVFHMLDKDKDGFIEEDELGFILKGFSPDARDLSAKETKMLMAAGDKDGDGKIGVEEWSTLVAES
notes: Control without a targeting moiety; also called non-targeted ProCA32; ProCA32 itself without targeting moiety
Take B3: in the assay with PSMA [1], the binding result is given as “no binding”.

B4: ProCA32.564.PSMA (designed binder, not shown: small tags and cut ends)
chain: MSMTDLLNAEDIKKAVGAFSATDSFDHKKFFQMVGLKKKSADDVKKVFHMLDKDKDGFIEEDELGFILKGFSPDARDLSAKETKMLMAAGDKDGDGKIGVEEWSTLVAESLSFFSCWLRRSFSLT
notes: Fluorescein-labelled in the anisotropy assays, unlabelled in the ELISA
In the assay with PSMA [2], B4 showed an EC50 of 520 nM.

(Values after US20260216379A1 (GEORGIA STATE UNIVERSITY RESEARCH FOUNDATION, published 2026).)
